Test results published in patent US20140086935A1 (Bayer, published 2014).

B1: MS-BW-44-6-1 (Fab, V domains shown)
VH: QVQLVESGGGLVQPGGSLRLSCAASGFTFNSYAMSWVRQAPGKGLEWVSVISGNGSNTYYADSVKGRFTISRDNSKNTLYLQMNSLRAEDTAVYYCARFLDIWGQGTLVTVSS
VL: DIALTQPASVSGSPGQSITISCTGTSSDVGGYNYVSWYQQHPGKAPKLMIYDVSNRPSGVSNRFSGSKSGNTASLTISGLQAEDEADYYCQSYDFIRFMVFGGGTKLTVLG
notes: Fab from LCDR3 optimization of MS-BW-44-6
B2: MS-BW-14 IgG1 (antibody, V domains shown)
VH: QVQLVQSGAEVKKPGSSVKVSCKASGGTFSSYAISWVRQAPGQGLEWMGGIIPIFGTANYAQKFQGRVTITADESTSTAYMELSSLRSEDTAVYYCARWSDQSYHYYWHPYFDVWGQGTLVTVSS
VL: DIVLTQPPSVSGAPGQRVTISCSGSSSNIGSNYVSWYQQLPGTAPKLLIYDNNQRPSGVPDRFSGSKSGTSASLAITGLQSEDEADYYCQSWDLEPYVFGGGTKLTVL
notes: Variable regions of Fab MS-BW-14 cloned into human IgG1 vectors; also called IgG1 protein MS-BW-14; copies: 2 + 2

How the values were obtained:
[1] = target: T1, human TIMP-1 (human, UniProt P01033 24-207); assay: cell-based or functional assay
[2] = target: T1, human TIMP-1; assay: cell-based or functional assay; remark: listed apart in the source
[3] = target: T1, human TIMP-1; assay: SPR (BIAcore), monovalent Fab
Description: (§1) For affinity determination, monomeric fractions of affinity and SEC purified Fab fragments or purified IgG1 molecules were used. All experiments were conducted in HBS buffer at a flow rate of 20 μl/min at 25° C. on a BIAcore™ instrument. Antigens in 100 mM sodium acetate pH 5.0 were coupled to a CM 5 sensor chip using standard EDC-NHS coupling chemistry. […] All sensograms were fitted globally using BIA evaluation software. For monovalent Fab fragments a monovalent fit (Langmuir binding) and for IgGs a bivalent fit was applied.

[4] = target: T1, human TIMP-1; assay: SPR (BIAcore), TIMP-1 coupled to chip, monovalent Fab
Description: as §1

[5] = target: T1, human TIMP-1; assay: SPR (BIAcore); against the parental Fab (MS-BW-44-6, 0.6 nM; implied)
Description: as §1

[6] = target: T1, human TIMP-1; assay: SPR (BIAcore), monovalent Fab; against parental clone MS-BW-3 (best Fab and parent named in paragraph 170)
[7] = target: T2, rat TIMP-1 (rat, UniProt P30120 24-217); assay: cell-based or functional assay
T2 sequence (P30120 24-217 limits assumed): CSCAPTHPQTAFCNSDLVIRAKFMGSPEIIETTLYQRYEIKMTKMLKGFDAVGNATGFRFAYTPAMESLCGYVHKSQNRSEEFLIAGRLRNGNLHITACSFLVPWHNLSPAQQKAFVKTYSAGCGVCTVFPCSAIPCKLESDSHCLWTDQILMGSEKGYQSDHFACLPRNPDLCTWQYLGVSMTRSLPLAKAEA

[8] = target: T2, rat TIMP-1; assay: SPR (BIAcore), rat TIMP-1 on chip (500 RU), IgG1, bivalent fit (avidity)
Description: as §1
Anti-rat TIMP-1 clone MS-BW-14 was chosen for the first in vivo study, and IgG₁ protein was produced by transient expression. Anti-human TIMP-1 clone MS-BW-3 was selected as a negative control IgG₁ and was also produced by transient expression. Purified IgG₁ proteins MS-BW-14 and MS-BW-3 were subjected to quality control in BIAcore™ and rat TIMP-1/rat MMP-13 assays. […] This increase in affinity for the IgG₁ is due to the avidity effects caused by binding of bivalent IgG₁ to immobilized rat TIMP-1 protein on the BIAcore™ chip.

Row | Binder | improvement factor of activity in human TIMP-1/MMP-1 assay (against parental clone MS-BW-3) [1] [fold] | IC50 in human protease assay (modified, decreased TIMP-1 and MMP-1) [2] [nM] | Kd [3] [nM] | Kd [4] [nM] | improvement factor (affinity) [5] [fold] | improvement factor of monovalent affinity [6] [fold] | IC50 (50 % reversal of the inhibition of rat MMP-13 by rat TIMP-1, fluorogenic peptide substrate assay) [7] [nM] | Kd [8] [nM]
1 | B1 | 55 | 0.2 | 0.15 | 0.2 | 4 | 87 | – | –
2 | B2 | – | – | – | – | – | – | ~7 | 0.2
